Test [1] deals with His-DDX3X^414-582 (human) (UniProt O00571). Nature of the test: fluorescence thermal shift (FTS) assay; FTS with varying concentrations of peptide; melting temperatures fitted to single site or simple cooperative ligand binding, preferred model chosen.
For test [2] the target is unchanged. Nature of the test: fluorescence thermal shift (FTS) assay; 10 µM His-DDX3X^414-582, 20 µM peptide, 50 mM HEPES pH 8, 10x SYPRO-Orange; change of melting temperature.

What is called Kd is the constant that tells how readily two partners part at equilibrium.

His-DDX3X^414-582 (human), sequence (O00571 414-582): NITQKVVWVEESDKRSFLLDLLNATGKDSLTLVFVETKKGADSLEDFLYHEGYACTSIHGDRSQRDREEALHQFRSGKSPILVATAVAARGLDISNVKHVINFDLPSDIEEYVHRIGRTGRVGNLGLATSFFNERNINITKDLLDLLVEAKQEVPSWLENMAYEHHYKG

For “CK1δ-derived peptide δ-41 (from UniProt P48730 41-55)”, the Kd in test [1] was 5.49 µM. The increase of the melting temperature (Tm) of His-DDX3X^414-582 in test [2] was determined as 5 °C.

These data come from article PMC5818060.
